Laboratory results published in PMC6698902.

Assays:
Assay in all cases: fluorescence anisotropy
A3B-CTD Y315F = A3B-CTD Y315F (Homo sapiens, UniProt Q9UH17 187-382, E255A;Y315F)
A3B-CTD R211A = A3B-CTD R211A (Homo sapiens, UniProt Q9UH17 187-382, E255A;R211A)
A3B-CTD P206G = A3B-CTD P206G (Homo sapiens, UniProt Q9UH17 187-382, E255A;P206G)
[1] = target: T1, A3B-CTD E255A (inactive, 'WT') (Homo sapiens, UniProt Q9UH17 187-382, E255A)
[2] = target: T1, A3B-CTD E255A (inactive, 'WT'); remark: listed apart in the source

T1 sequence (Q9UH17 187-382 E255A): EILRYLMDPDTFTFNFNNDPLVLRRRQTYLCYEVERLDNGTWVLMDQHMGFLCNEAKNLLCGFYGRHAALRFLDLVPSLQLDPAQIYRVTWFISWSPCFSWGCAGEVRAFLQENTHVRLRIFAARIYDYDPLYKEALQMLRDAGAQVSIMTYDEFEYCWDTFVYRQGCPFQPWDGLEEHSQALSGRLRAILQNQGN
Chain of A3B-CTD P206G (Q9UH17 187-382 P206G/E255A): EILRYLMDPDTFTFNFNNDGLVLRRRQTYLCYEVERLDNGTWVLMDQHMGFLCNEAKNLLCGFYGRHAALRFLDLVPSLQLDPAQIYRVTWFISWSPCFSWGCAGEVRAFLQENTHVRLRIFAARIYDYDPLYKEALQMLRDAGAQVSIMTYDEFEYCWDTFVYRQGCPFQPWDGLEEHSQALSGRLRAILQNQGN
Chain of A3B-CTD R211A (Q9UH17 187-382 R211A/E255A): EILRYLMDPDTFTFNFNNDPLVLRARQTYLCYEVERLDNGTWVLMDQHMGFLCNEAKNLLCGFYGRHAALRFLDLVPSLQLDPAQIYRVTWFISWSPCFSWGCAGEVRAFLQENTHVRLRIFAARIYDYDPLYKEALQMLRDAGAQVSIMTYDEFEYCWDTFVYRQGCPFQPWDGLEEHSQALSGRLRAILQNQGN
Chain of A3B-CTD Y315F (Q9UH17 187-382 E255A/Y315F): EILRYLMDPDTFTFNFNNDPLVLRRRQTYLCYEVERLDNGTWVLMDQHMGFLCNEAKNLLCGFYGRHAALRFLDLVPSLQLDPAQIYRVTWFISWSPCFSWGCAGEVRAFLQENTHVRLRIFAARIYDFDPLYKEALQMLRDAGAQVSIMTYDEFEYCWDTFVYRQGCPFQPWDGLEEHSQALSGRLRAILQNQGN

| Binder | binding result (A3B-CTD Y315F) | binding result (A3B-CTD R211A) | binding result (A3B-CTD P206G) | Kd [1] [µM] | binding result [2] |
| --- | --- | --- | --- | --- | --- |
| GCCATCATTCGATGGG (structured_DNA) [DNA hairpin] | binds | no binding | no binding | 2 |  |
| AAAAAAAATCGAAAA (ssDNA) [polyA TCG (linear DNA)] |  | no binding | no binding | 5.4 |  |
| GCCAUCUAUCGAUGG (structured_RNA) [RNA hairpin] |  |  |  |  | no binding |
